Experimental findings from US20260297187 (published 2026) are described below.

Sequences and labels used below:
T1: CEACAM1-his (human)
T1 chain: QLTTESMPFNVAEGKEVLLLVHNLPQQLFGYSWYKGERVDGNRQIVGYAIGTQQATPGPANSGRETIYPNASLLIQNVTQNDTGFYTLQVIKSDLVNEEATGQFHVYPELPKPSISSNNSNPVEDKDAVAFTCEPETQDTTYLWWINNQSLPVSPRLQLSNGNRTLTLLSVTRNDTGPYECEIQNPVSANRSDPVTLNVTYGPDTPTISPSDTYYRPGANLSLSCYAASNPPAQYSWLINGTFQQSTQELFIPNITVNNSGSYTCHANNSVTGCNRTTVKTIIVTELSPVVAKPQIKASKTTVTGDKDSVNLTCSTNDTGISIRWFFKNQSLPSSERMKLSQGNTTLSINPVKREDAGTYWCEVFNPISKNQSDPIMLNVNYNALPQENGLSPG

B1: h9D12.G4.H0aL7 (antibody, V domains shown)
VH: EVQLVQSGAEVKKPGATVKISCKVSGFNIKDTYMHWVQQAPGKGLEWMGRIDLASGDSKYDPKFQGRVTITADTSTDTAYMELSSLRSEDTAVYYCARAHFGGGNWYFDVWGQGTTVTVSS
VL: DIQLTQSPSFLSASVGDRVTITCSASSSVSYMHWYQQKPGQAPKPWIYEISKLASGVPSRFSGSGSGTEYTLTISSMQSEDFAVYYCQQWNYPLTFGQGTKLEIK
B2: h9D12.G4.H4L7 (antibody, V domains shown)
VH: QVQLVQSGAEVKKPGASVKVSCKASGFNIKDTYMHWVRQAPGQGLEWIGRIDLASGDSKYDPKFQGRVTMTADTSTSTVYMELSSLRSEDTAVYYCARAHFGGGNWYFDVWGQGTTVTVSS
VL: DIQLTQSPSFLSASVGDRVTITCSASSSVSYMHWYQQKPGQAPKPWIYEISKLASGVPSRFSGSGSGTEYTLTISSMQSEDFAVYYCQQWNYPLTFGQGTKLEIK
B3: 2G12 (antibody, V domains shown)
VH: QIQLVQSGPELKKPGETVKISCKASGYSFTHHGMNWVKQAPGKDLKWMGWINTYTGEPTYADDFRGRFAFSLETSASTAYLQINNLKSEDTATYFCARKDYYISGNFDYWGQGTTLTVSS
VL: DIQMTQSPSSLSASLGERVSLTCRASQDIGSNLNWLQQEPDGTIKRLIYATSSLDSGVPKRFSGSRSGSDYSLTISSLESEDFVDYYCLQYASSPYTFGGGTKLEIK
B4: 5D5.G4 (antibody, V domains shown)
VH: QIQLVQSGPELKKPGETVKISCKASGYTLTNYGMNWVKQAPGTDLKWMGWINTYTGEPTYADDFKGRFAFSLETSASTAYLQINNLKNEDTATYFCARKDYYVSGNFDYWGQGTTLTVSS
VL: DIQMTQSPSSLSASLGERVSLTCRASQDIGSNLNWLQQEPDGTIKRLIYATSSLDSGVPKRFSGSRSGSDYSLTISSLESEDFVDYYCLQYASSPYTFGGGTKLEIK
B5: 4D10.G4 (antibody, V domains shown)
VH: EVQLQQSGPELVKPGASVKMSCKASGYTFSSYVIHWVRQKPGQGLEWIGYFNPYNNGTNYNENFKGKATLTSGKSSSTAYMELSSLTSEDSAVYYCARYYYASGSLYFDYWGQGTTLTVSS
VL: EIVLTQSPAIATASLGQKVTITCSASSSVSYMHWYQQKSGTSPKPWIYEISKLASGVPTRFSGSGSGTSYSLTISSMEAEDAAIYYCQQWNYPLITFGAGTKLELK
B6: 4H11 (antibody, V domains shown)
VH: QIQLVQSGPELKKPGETVKISCKASGYTLTDYGMNWVSQAPGKGLKWVGWINTYTGEPTYADDFKGRFAFSLDTSASTAYLQINNLKNEDTATYFCARKNIYGYFDVWGAGTTVTVSS
VL: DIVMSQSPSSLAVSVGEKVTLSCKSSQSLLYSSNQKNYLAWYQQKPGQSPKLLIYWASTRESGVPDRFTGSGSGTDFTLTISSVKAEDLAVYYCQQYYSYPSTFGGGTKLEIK
B7: P23B6 (antibody, V domains shown)
VH: QVQLLQPGAEPVKPGTSVKLSCKASGYNFTSYWLNWVKLRPGQGLEWIGDIHPGRGSINYNEKFKSKAILTVDTSSRTAYIQLSSLASEDSALYYCARADGSWFVYWGQGTLVTVSA
VL: DIVLTQSPASLAVSLGQRATISCRASQSVSTSSYSYMHWYQQKPGQPPKLLIKYASNLESGVPARFSGSGSGTDFTLNIHPVEEEDTATYYCQHSWEIPWTFGGGTKLEIK
B8: h4D10.G4.H4(N56Q Y100W)L2 (antibody, V domains shown)
VH: QVQLVQSGAEVKKPGASVKVSCKASGYTFSSYVIHWVRQAPGQGLEWMGYFNPYNQGTNYNENFKGRVTMTADTSTSTVYMELSSLRSEDTAVYYCARYWYASGSLYFDYWGQGTTVTVSS
VL: DIQMTQSPSTLSASVGDRVTITCSASSSVSYMHWYQQKPGKAPKPLIYEISKLASGVPSRFSGSGSGTEFTLTISSLQPDDAATYYCQQWNYPLITFGGGTKVEIK
B9: h4D10.G4.H4(N56V Y100V)L2 (antibody, V domains shown)
VH: QVQLVQSGAEVKKPGASVKVSCKASGYTFSSYVIHWVRQAPGQGLEWMGYFNPYNVGTNYNENFKGRVTMTADTSTSTVYMELSSLRSEDTAVYYCARYVYASGSLYFDYWGQGTTVTVSS
VL: DIQMTQSPSTLSASVGDRVTITCSASSSVSYMHWYQQKPGKAPKPLIYEISKLASGVPSRFSGSGSGTEFTLTISSLQPDDAATYYCQQWNYPLITFGGGTKVEIK
B10: h4D10.G4.H4(N56I Y100F)L2 (antibody, V domains shown)
VH: QVQLVQSGAEVKKPGASVKVSCKASGYTFSSYVIHWVRQAPGQGLEWMGYFNPYNIGTNYNENFKGRVTMTADTSTSTVYMELSSLRSEDTAVYYCARYFYASGSLYFDYWGQGTTVTVSS
VL: DIQMTQSPSTLSASVGDRVTITCSASSSVSYMHWYQQKPGKAPKPLIYEISKLASGVPSRFSGSGSGTEFTLTISSLQPDDAATYYCQQWNYPLITFGGGTKVEIK
B11: h4D10.G4.H4(N56I Y100W)L2 (antibody, V domains shown)
VH: QVQLVQSGAEVKKPGASVKVSCKASGYTFSSYVIHWVRQAPGQGLEWMGYFNPYNIGTNYNENFKGRVTMTADTSTSTVYMELSSLRSEDTAVYYCARYWYASGSLYFDYWGQGTTVTVSS
VL: DIQMTQSPSTLSASVGDRVTITCSASSSVSYMHWYQQKPGKAPKPLIYEISKLASGVPSRFSGSGSGTEFTLTISSLQPDDAATYYCQQWNYPLITFGGGTKVEIK
B12: h4D10.G4.H4(N56Q Y100F)L2(S28F S51M) (antibody, V domains shown)
VH: QVQLVQSGAEVKKPGASVKVSCKASGYTFSSYVIHWVRQAPGQGLEWMGYFNPYNQGTNYNENFKGRVTMTADTSTSTVYMELSSLRSEDTAVYYCARYFYASGSLYFDYWGQGTTVTVSS
VL: DIQMTQSPSTLSASVGDRVTITCSASSFVSYMHWYQQKPGKAPKPLIYEIMKLASGVPSRFSGSGSGTEFTLTISSLQPDDAATYYCQQWNYPLITFGGGTKVEIK
B13: h4D10.G4.H4(N56Q Y100F)L2(S28F S51M K52R) (antibody, V domains shown)
VH: QVQLVQSGAEVKKPGASVKVSCKASGYTFSSYVIHWVRQAPGQGLEWMGYFNPYNQGTNYNENFKGRVTMTADTSTSTVYMELSSLRSEDTAVYYCARYFYASGSLYFDYWGQGTTVTVSS
VL: DIQMTQSPSTLSASVGDRVTITCSASSFVSYMHWYQQKPGKAPKPLIYEIMRLASGVPSRFSGSGSGTEFTLTISSLQPDDAATYYCQQWNYPLITFGGGTKVEIK
B14: h4D10.G4.H4(H35M N56Q Y100F)L2 (antibody, V domains shown)
VH: QVQLVQSGAEVKKPGASVKVSCKASGYTFSSYVIMWVRQAPGQGLEWMGYFNPYNQGTNYNENFKGRVTMTADTSTSTVYMELSSLRSEDTAVYYCARYFYASGSLYFDYWGQGTTVTVSS
VL: DIQMTQSPSTLSASVGDRVTITCSASSSVSYMHWYQQKPGKAPKPLIYEISKLASGVPSRFSGSGSGTEFTLTISSLQPDDAATYYCQQWNYPLITFGGGTKVEIK
B15: h4D10.G4.H4(N56Q Y100F)L2(S28F) (antibody, V domains shown)
VH: QVQLVQSGAEVKKPGASVKVSCKASGYTFSSYVIHWVRQAPGQGLEWMGYFNPYNQGTNYNENFKGRVTMTADTSTSTVYMELSSLRSEDTAVYYCARYFYASGSLYFDYWGQGTTVTVSS
VL: DIQMTQSPSTLSASVGDRVTITCSASSFVSYMHWYQQKPGKAPKPLIYEISKLASGVPSRFSGSGSGTEFTLTISSLQPDDAATYYCQQWNYPLITFGGGTKVEIK
B16: h4D10.G4.H4(N56Q Y100F)L2(S28F K52R) (antibody, V domains shown)
VH: QVQLVQSGAEVKKPGASVKVSCKASGYTFSSYVIHWVRQAPGQGLEWMGYFNPYNQGTNYNENFKGRVTMTADTSTSTVYMELSSLRSEDTAVYYCARYFYASGSLYFDYWGQGTTVTVSS
VL: DIQMTQSPSTLSASVGDRVTITCSASSFVSYMHWYQQKPGKAPKPLIYEISRLASGVPSRFSGSGSGTEFTLTISSLQPDDAATYYCQQWNYPLITFGGGTKVEIK
B17: h4D10.G4.H4(N56Q Y100F)L2(S28H) (antibody, V domains shown)
VH: QVQLVQSGAEVKKPGASVKVSCKASGYTFSSYVIHWVRQAPGQGLEWMGYFNPYNQGTNYNENFKGRVTMTADTSTSTVYMELSSLRSEDTAVYYCARYFYASGSLYFDYWGQGTTVTVSS
VL: DIQMTQSPSTLSASVGDRVTITCSASSHVSYMHWYQQKPGKAPKPLIYEISKLASGVPSRFSGSGSGTEFTLTISSLQPDDAATYYCQQWNYPLITFGGGTKVEIK
B18: h4D10.G4.H4(N56Q Y100F)L2(K52R) (antibody, V domains shown)
VH: QVQLVQSGAEVKKPGASVKVSCKASGYTFSSYVIHWVRQAPGQGLEWMGYFNPYNQGTNYNENFKGRVTMTADTSTSTVYMELSSLRSEDTAVYYCARYFYASGSLYFDYWGQGTTVTVSS
VL: DIQMTQSPSTLSASVGDRVTITCSASSSVSYMHWYQQKPGKAPKPLIYEISRLASGVPSRFSGSGSGTEFTLTISSLQPDDAATYYCQQWNYPLITFGGGTKVEIK
B19: h4D10.G4.H4(N56Q Y100F)L2(S51M) (antibody, V domains shown)
VH: QVQLVQSGAEVKKPGASVKVSCKASGYTFSSYVIHWVRQAPGQGLEWMGYFNPYNQGTNYNENFKGRVTMTADTSTSTVYMELSSLRSEDTAVYYCARYFYASGSLYFDYWGQGTTVTVSS
VL: DIQMTQSPSTLSASVGDRVTITCSASSSVSYMHWYQQKPGKAPKPLIYEIMKLASGVPSRFSGSGSGTEFTLTISSLQPDDAATYYCQQWNYPLITFGGGTKVEIK

One test deals with T1, CEACAM1-his. Description: BLI. Background: Biolayer interferometry detects binding as a change in optical thickness at a sensor tip.
As usually defined, the Kd is the concentration at which binding is half-saturated. A high value points to a looser complex. The molecule B1 registered a Kd of 3.39 nM.
Still for that read-out and setting: the result for B2 reads 2.46 nM.

Another test has as its target T1, CEACAM1-his. Nature of the test: BLI. The source holds these as a separate data set.
In turn, B1 returned a Kd of 3.39 nM.
For the molecule B2, the affinity, expressed as Kd, was 2.46 nM.

A further test has as its target T1, CEACAM1-his. Description: BLI. This is another data set of the same source.
B3 showed a dissociation constant (Kd) of 2.19 nM.
Same read-out and setting: with B4 the figure was 2.11 nM; with B5, 1.89 nM; with B6, 3.51 nM.
The same measure, in the same setting: with B7 the figure was 6.31 nM.

The next test has as its target T1, CEACAM1-his. Nature of the test: BLI. This is another data set of the same source.
Molecule B8 gave a dissociation constant (Kd) of 3.65 nM.
The same measure, in the same setting: the result for B9 reads 4.67 nM; that for B10, 3.14 nM.
On the same count and under the same terms, with B11 the figure was 5.41 nM; with B5, 1.82 nM.

A further test deals with T1, CEACAM1-his. Description: BLI. This is another data set of the same source.
As to B12, binding was characterised by a dissociation constant (Kd) of 0.362 nM. This counts as sub-nanomolar.
Same read-out and setting: the result for B13 reads 0.151 nM; that for B14, 0.394 nM; that for B15, 0.3 nM.
As for B16, the Kd was determined as 0.268 nM.
Same read-out and setting: the result for B17 reads 0.956 nM; that for B18, 0.801 nM; that for B19, 0.784 nM.
